Consider seven molecules from US20020058247A1 (TRIPEP, published 2002).

In experiment [1] the target is T1, Full length recombinant HBcAg (rHBcAg) encompassing residues 1-183 (hepatitis B virus, UniProt P03146 1-183).
T1 construct: range 1-183; also called hepatitis B virus core antigen
As to the kind of experiment: competition EIA, HBcAg coated 1 ug/ml, peptide 25 ug/ml before mAb 4-2 (competitor); OD of bound mAb.

For experiment [2], the target named is T1, Full length recombinant HBcAg (rHBcAg) …. As to the kind of experiment: competition EIA, HBcAg coated 1 ug/ml, peptide 50 ug/ml before mAb 4-2 (competitor); OD of bound mAb.
Experiment [3] shares this target. As to the kind of experiment: competition EIA, HBcAg coated 5 ug/ml, peptide 50 ug/ml together with mAb 4-2 (competitor); OD of bound mAb.
The target is the same in experiment [4]. As to the kind of experiment: competition EIA, HBcAg coated 5 ug/ml, peptide 25 ug/ml together with mAb 4-2 (competitor); OD of bound mAb.
Experiment [5] shares this target. As to the kind of experiment: EIA, support-bound peptide, HBcAg 2 ug/well.
Experiment [6] shares this target. As to the kind of experiment: competition EIA, HBcAg coated 1 ug/ml, peptide 12.5 ug/ml before mAb 4-2 (competitor); OD of bound mAb.
Experiment [7] shares this target. As to the kind of experiment: competition EIA, HBcAg coated 5 ug/ml, peptide 12.5 ug/ml together with mAb 4-2 (competitor); OD of bound mAb.
The target is the same in experiment [8]. As to the kind of experiment: competition EIA, HBcAg coated 1 ug/ml, peptide 6.25 ug/ml before mAb 4-2 (competitor); OD of bound mAb.
The target is the same in experiment [9]. As to the kind of experiment: competition EIA, HBcAg coated 1 ug/ml, peptide 100 ug/ml before mAb 4-2 (competitor); OD of bound mAb.
Experiment [10] shares this target. As to the kind of experiment: EIA, support-bound peptide, HBcAg 0.2 ug/well.
Experiment [11] concerns the target T2, non-structural 3 protein (NS3) of the hepatitis C virus (HCV) (hepatitis C virus).
T2 construct: Control antigen; also called HCV NS3
As to the kind of experiment: EIA, support-bound peptide, HCV NS3 control.

The target of experiment [12] is T1, Full length recombinant HBcAg (rHBcAg) …. As to the kind of experiment: competition EIA, HBcAg coated 1 ug/ml, peptide 200 ug/ml before mAb 4-2 (competitor); OD of bound mAb.
Experiment [13] has the same target. As to the kind of experiment: competition EIA, HBcAg coated 5 ug/ml, peptide 100 ug/ml together with mAb 4-2 (competitor); OD of bound mAb.
Experiment [14] shares this target. As to the kind of experiment: competition EIA, HBcAg coated 5 ug/ml, peptide 6.25 ug/ml together with mAb 4-2 (competitor); OD of bound mAb.
For experiment [15] the target is unchanged. As to the kind of experiment: competition EIA, HBcAg coated 5 ug/ml, peptide 200 ug/ml together with mAb 4-2 (competitor); OD of bound mAb.
Experiment [16] concerns the target T3, truncated recombinant form of HBeAg containing nine residues of pre-core and the 150 first residues of HBcAg (hepatitis B virus, UniProt P03146 1-150).
T3 construct: domain: nine residues of pre-core;range 1-150; also called hepatitis B virus e antigen
As to the kind of experiment: EIA, HBeAg on solid phase, fusion peptide 20 ug/well, gG2 mAb detection.

The target of experiment [17] is serum HBeAg in HBeAg-transgenic mice (hepatitis B virus). As to the kind of experiment: cell-based or functional assay.
Sequence of serum HBeAg in HBeAg-transgenic mice (hepatitis B virus) (P0C573 20-183): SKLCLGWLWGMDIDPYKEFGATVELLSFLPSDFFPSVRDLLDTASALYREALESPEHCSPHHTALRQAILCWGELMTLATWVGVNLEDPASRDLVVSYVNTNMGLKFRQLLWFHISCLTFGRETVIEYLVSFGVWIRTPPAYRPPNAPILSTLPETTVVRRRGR

T3 sequence (P03146 1-150): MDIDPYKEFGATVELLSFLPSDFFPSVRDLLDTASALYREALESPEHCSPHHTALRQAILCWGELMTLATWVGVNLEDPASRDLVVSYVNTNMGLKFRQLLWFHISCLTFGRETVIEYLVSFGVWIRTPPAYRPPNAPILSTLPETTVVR
T1 sequence (P03146 whole entry, the tested form may be a part): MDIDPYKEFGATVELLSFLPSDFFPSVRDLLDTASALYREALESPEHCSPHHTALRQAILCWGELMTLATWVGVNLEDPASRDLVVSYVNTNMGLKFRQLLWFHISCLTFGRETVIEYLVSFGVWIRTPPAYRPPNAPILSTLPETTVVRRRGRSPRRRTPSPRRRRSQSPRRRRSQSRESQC

Turning to QQKPGQPPKLLIKYASNLES [QQKPGQPPKLLIKYASNLES (SEQ. ID. No. 19)], the “OD at 490 nm” value in experiment [1] amounted to 0.406 OD; in [2], 0.383 OD; in experiment [3] it was 1.23 OD; in [4] it was 1.24 OD; in experiment [6] it was 0.391 OD; in experiment [7] it was 1.24 OD. For the same molecule, the “OD at 490 nm” value was 0.336 OD in [8]; 0.394 OD in [9]; 0.368 OD in experiment [12]; 1.11 OD in experiment [13]; 1.06 OD in experiment [14]; 0.925 OD in experiment [15]. The results for the “OD at 405 nm” value in [5], in [10] and in experiment [11] were 0.299 OD, 0.064 OD and 0.016 OD, respectively.

For the molecule VKLSCKASGYIFTSEHRGGPE (also called fusion peptide) [VKLSCKASGYIFTSEHRGGPE (SEQ. ID. No. 73)], in experiment [16], the “gG2 mAb binding (OD)” value was determined as 0.029 OD.

On to VKLSCKASGYIFTSHRGGPEE [VKLSCKASGYIFTSHRGGPEE (SEQ. ID. No. 74)], for which, in experiment [17], the “Fold change in serum HBeAg levels by EIA in HBeAg-Tg mice, day 0” value was found to be 1 fold; the “Fold change in serum HBeAg levels by EIA in HBeAg-Tg mice, day 1” value worked out at 1.5 fold; the “Fold change in serum HBeAg levels by EIA in HBeAg-Tg mice, day 3” value was found to be 2.3 fold; the “Fold change in serum HBeAg levels by EIA in HBeAg-Tg mice, day 6” value is 2.3 fold. In addition, the “Fold change in serum HBeAg levels by EIA in HBeAg-Tg mice, day 9” value in [17] was 3.3 fold. In addition, in experiment [16], the “gG2 mAb binding (OD)” value was determined as 1.73 OD.

For KLSCKASGYIFTSEHRGGPEE (also called fusion peptide) [KLSCKASGYIFTSEHRGGPEE (SEQ. ID. No. 70)], in experiment [16], the “gG2 mAb binding (OD)” value worked out at 0.022 OD.

Take KLSCKASGYIFTSHRGGPEEF (also called fusion peptide) [KLSCKASGYIFTSHRGGPEEF (SEQ. ID. No. 71)]: the “gG2 mAb binding (OD)” value in [16] stood at 0.638 OD.

For the molecule KLSCKASGYIFTSRGGPEEFE (also called fusion peptide) [KLSCKASGYIFTSRGGPEEFE (SEQ. ID. No. 72)], the “gG2 mAb binding (OD)” value in experiment [16] was determined as 0.04 OD.

As to VKLSCKASGYIFTSGGPEEFE (also called fusion peptide) [VKLSCKASGYIFTSGGPEEFE (SEQ. ID. No. 76)], in experiment [16], the “gG2 mAb binding (OD)” value came out at 0.024 OD.
